This is an account of results in patent US20070134248A1.

In this test the target is KV4-1 Id proteins. The test can be described thus: ELISA. (ELISA stands for enzyme-linked immunosorbent assay.)

B1: mAb clone 12C3 (antibody, V domains shown)
VH: EVKLVESGGGLVQPGGSLSLSCAASGFTYTDYYMNWVRQPPGKALEWLALIRNKANGYTTEYSASLKGRFTISRDNSQSILYLQMNALRAEDSATYYCVRENINYYFDYWGQGTTLTVSS
VL: DIVLTQSPASLAVSLGQRATISCRASESVEYFGASLMQWYQQKSGQPPKLLIRAATNVESGVPARFSGSGSGTDFSLNIHPVEEDDIAMYFCQQSRKVPWTFGGGTKLEIKR
Molecule B1 displayed a KV4-1 Id proteins recognized / tested (of 41 Id proteins) of 35.
